PMC2647307

Tested on: C.PvuII
Assay: competition
Conditions: scale: % loss of shifted WT band at 10-fold excess competitor

Sym CAA/CAA 126-mer
binding signal: 90

Sym CAT/CAT 126-mer
binding signal: 30

Sym CAA/CAT 126-mer
binding signal: 90

Sym CAT/CAA 126-mer
binding signal: 30
